In experiment [1] the target is wildtype hamster BiP, N-terminally hexahistidine-tagged (hamster) (UniProt G3I8R9). Kind of experiment: native gel or EMSA; purified BiP diluted to a series of concentrations, equilibrated 48 hr at room temperature, native-PAGE immunoblot; share of species II and III against concentration; crude estimate.
Experiment [2] has the same target. The experiment can be described thus: SEC-MALS; wildtype BiP 90 µM, Superdex 200 Increase 10/300 in HKM, room temperature.

Values joined by “and” are separate entries in the source; they are usually repeats but may differ in a detail not shown here. Identical values can stand only once.

wildtype hamster BiP, N-terminally hexahistidine-tagged, G3I8R9 19-654 (natural protein; other documents disagree on this pair), sequence (G3I8R9 19-654): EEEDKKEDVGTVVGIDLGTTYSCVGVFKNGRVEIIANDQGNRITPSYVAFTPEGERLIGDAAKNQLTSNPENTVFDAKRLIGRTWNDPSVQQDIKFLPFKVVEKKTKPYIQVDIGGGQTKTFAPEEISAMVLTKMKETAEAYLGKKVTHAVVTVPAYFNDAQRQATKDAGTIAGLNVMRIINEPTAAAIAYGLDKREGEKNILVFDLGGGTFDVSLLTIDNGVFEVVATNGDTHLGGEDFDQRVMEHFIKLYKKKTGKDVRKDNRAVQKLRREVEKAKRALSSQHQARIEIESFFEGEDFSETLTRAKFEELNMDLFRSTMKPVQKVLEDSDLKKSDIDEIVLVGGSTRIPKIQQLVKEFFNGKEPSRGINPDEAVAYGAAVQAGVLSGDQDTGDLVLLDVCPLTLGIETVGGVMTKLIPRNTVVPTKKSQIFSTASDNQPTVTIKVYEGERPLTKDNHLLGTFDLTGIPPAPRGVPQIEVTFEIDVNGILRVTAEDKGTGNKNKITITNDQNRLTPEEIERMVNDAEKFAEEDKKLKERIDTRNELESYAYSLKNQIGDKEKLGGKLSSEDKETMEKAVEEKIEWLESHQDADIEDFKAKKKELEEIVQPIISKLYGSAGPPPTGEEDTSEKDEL

In the case of “wildtype hamster BiP, N-terminally hexahistidine-tagged, G3I8R9 19-654 (natural protein; other documents disagree on this pair)”, in experiment [1], the K (1/2max)^II (concentration of BiP at which half of species II dissociated) was 0.45 µM and the K (1/2max)^III (concentration of BiP at which half of species III dissociated) is 0.74 µM. Besides, the stoichiometry N in experiment [2] was 2 and 3.

Values taken from PMC4608358.
